Data taken from the supplement of paper PMC7877785.
± gives the uncertainty stated by the source.

Assay: self-splicing fitness, log relative to wild type (ln ratio); higher = more splicing; Tetrahymena group I intron in knt gene, E. coli kanamycin selection, DiMSum; sequences stand for … in CUCUCU…GGAGGGAAAAGUUAUCAGGCAUGCACCUGGUAGCUAGUCUUUAAACCAAUAGAUUGCAUCGGUUUAAAAGGCAAGACCGUCAAAUUGCGGGAAAGGGGUCAACAGCCGUUCAGUACCAAGUCUCAGGGGAAACUUUGAGAUGGCCUUGCAAAGGGUAUGGUAAUAAGCUGACGGACAUGGUCCUAACCACGCAGCCAAGUCCUAAGUCAACAGAUCUUCUGUUGAUAUGGAUGCAGUUCACAGACUAAAUGUCGGUCGGGGAAGAUGUAUUCUUCUCAUAAGAUAUAGUCGGACCUCUCCUUAAUGGGAGCUAGCGGAUGAAGUGAUGCAACACUGGAGCCGCUGGGAACUAAUUUGUAUGCGAAAGUAUAUUGAUUAGUUUUGGAGUACUCGUGGUCG
How it was run: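 DiMSum derived fitness as the error-weighted combination of fold changes across replicates, kanamycin versus no kanamycin, normalised to wild type. E. coli BL21(DE3) held the library, which randomised all eight P1ex-region intron nucleotides within the knt kanamycin-resistance gene on pET-22b(+). Six replicate transformations grew overnight at 37°C or 30°C on LB agar with or without 25 μg/mL kanamycin, also containing 100 μg/mL carbenicillin, 50 μM IPTG and 0.2% rhamnose, and pooled colonies were amplicon-sequenced on an Illumina HiSeq 2500.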

Sequence	self-splicing fitness (ln) (30 °C)	self-splicing fitness (ln) (37 °C)
UCUUAGCAAUAUUACGGUCA	-1.71 ± 0.16	-0.613 ± 0.16
UUUGAGCAAUAUUACGCUAU	-3.79 ± 0.42	-2.26 ± 0.23
CGACAGCAAUAUUACGAGUG	-1.06 ± 0.046	-0.592 ± 0.063
ACCUAGCAAUAUUACGUCGA	-2.29 ± 0.093	-0.834 ± 0.091
CGUAAGCAAUAUUACGCACU	-2.27 ± 0.24	-1.6 ± 0.18
CCUGAGCAAUAUUACGAGGA	-3.04 ± 0.45	-1.57 ± 0.18
AUUUAGCAAUAUUACGACGU	0.023 ± 0.064	0.539 ± 0.077
ACGAAGCAAUAUUACGUCUC	-3.62 ± 0.12	-1.55 ± 0.087
GAAGAGCAAUAUUACGAUAA	-3.7 ± 0.29	-2.11 ± 0.22
ACUAAGCAAUAUUACGUCUA	-1.45 ± 0.13	-0.981 ± 0.12
UCAUAGCAAUAUUACGAUCA	-1.3 ± 0.13	-0.941 ± 0.16
GCUUAGCAAUAUUACGUAUA	-1.24 ± 0.072	-1.15 ± 0.094
UCGCAGCAAUAUUACGUACA	-1.62 ± 0.15	-0.509 ± 0.12
UUCUAGCAAUAUUACGUCGA	-1.02 ± 0.13	-0.474 ± 0.15
GUCCAGCAAUAUUACGUUCC	-1.46 ± 0.083	-0.198 ± 0.1
UAAAAGCAAUAUUACGCGAU	-3.3 ± 0.17	-2.51 ± 0.2
CACAAGCAAUAUUACGCUAU	-4.42 ± 0.26	-1.58 ± 0.14
GGCUAGCAAUAUUACGUACG	-0.805 ± 0.1	0.365 ± 0.11
UGAAAGCAAUAUUACGUCUG	-0.102 ± 0.071	0.773 ± 0.09
UACCAGCAAUAUUACGUCCG	-0.95 ± 0.058	-0.0389 ± 0.083
AAAUAGCAAUAUUACGUUCA	-0.751 ± 0.094	0.187 ± 0.12
CGGAAGCAAUAUUACGUGGG	-3.23 ± 0.13	-2.85 ± 0.18
GCUUAGCAAUAUUACGAAGC	-4.18 ± 0.31	-4.66 ± 0.36
GAUGAGCAAUAUUACGAAAC	-3.2 ± 0.26	-2.43 ± 0.24

Sequence	self-splicing fitness (ln) (30 °C)	self-splicing fitness (ln) (37 °C)
AGACAGCAAUAUUACGGGGC	-3.97 ± 0.23	-1.69 ± 0.17
UGCUAGCAAUAUUACGCAAG	-3.87 ± 0.33	-3.11 ± 0.25
AUUGAGCAAUAUUACGCAUG	-4 ± 0.32	-0.903 ± 0.26
GCCAAGCAAUAUUACGUCAC	-3.8 ± 0.19	-1.8 ± 0.16
CGGAAGCAAUAUUACGUAUC	-3.82 ± 0.21	-2.81 ± 0.22
GAGUAGCAAUAUUACGGAAG	-3.65 ± 0.23	-2.71 ± 0.26
CUGUAGCAAUAUUACGGGUA	-1.96 ± 0.35	–
ACUCAGCAAUAUUACGGAUU	-0.597 ± 0.055	0.0271 ± 0.076
CCAUAGCAAUAUUACGGUGA	-1.18 ± 0.11	-1.74 ± 0.12
GUGGAGCAAUAUUACGUUCU	-4.21 ± 0.26	-2.38 ± 0.18
UGCAAGCAAUAUUACGGAUG	-1.25 ± 0.065	-0.565 ± 0.078
AUUUAGCAAUAUUACGCUGU	-1.33 ± 0.14	-1.01 ± 0.16
GGAGAGCAAUAUUACGUCGA	-2.7 ± 0.32	-1.53 ± 0.26
AAAUAGCAAUAUUACGUUAG	-4.15 ± 0.42	-3.24 ± 0.3
AACAAGCAAUAUUACGAAAU	-3.53 ± 0.13	-1.4 ± 0.095
AAGUAGCAAUAUUACGUGAU	-2.24 ± 0.098	-1.77 ± 0.12
UCUCAGCAAUAUUACGUGAA	-1.14 ± 0.082	0.314 ± 0.1
UCGAAGCAAUAUUACGGUCU	-2.6 ± 0.14	-0.844 ± 0.13
GCCAAGCAAUAUUACGGAUA	-0.904 ± 0.069	-0.65 ± 0.073
GCAAAGCAAUAUUACGAAAU	-2.4 ± 0.12	-1.36 ± 0.11
UUACAGCAAUAUUACGUUGC	-3.56 ± 0.37	-2.37 ± 0.26
GCCUAGCAAUAUUACGAUAU	-2.23 ± 0.11	-0.907 ± 0.097
GUAUAGCAAUAUUACGAUCA	-1.33 ± 0.2	-0.768 ± 0.16
CUUAAGCAAUAUUACGCGAC	-1.83 ± 0.16	-0.508 ± 0.23

Sequence	self-splicing fitness (ln) (30 °C)	self-splicing fitness (ln) (37 °C)
GAUUAGCAAUAUUACGACUU	0.263 ± 0.12	-0.24 ± 0.12
UCGCAGCAAUAUUACGAUCA	-1.27 ± 0.15	-1.18 ± 0.15
ACUCAGCAAUAUUACGAGGG	-1.85 ± 0.08	-1.41 ± 0.1
ACUGAGCAAUAUUACGCCCG	-2.15 ± 0.25	-0.509 ± 0.22
GAGAAGCAAUAUUACGUCGU	-2.16 ± 0.075	-0.855 ± 0.077
ACUCAGCAAUAUUACGGUUU	-0.62 ± 0.048	-0.291 ± 0.057
UACAAGCAAUAUUACGUAAA	-2.45 ± 0.073	-1.38 ± 0.087
AACUAGCAAUAUUACGCAGC	-3.32 ± 0.25	-2.98 ± 0.43
AGCAAGCAAUAUUACGCAAA	-3.11 ± 0.27	-2.23 ± 0.24
CGUUAGCAAUAUUACGCUGA	-2.78 ± 0.3	-2.66 ± 0.29
GUAAAGCAAUAUUACGCGCU	-1.4 ± 0.075	-0.523 ± 0.096
UAACAGCAAUAUUACGUGAU	-2.4 ± 0.12	-1.7 ± 0.17
GCGUAGCAAUAUUACGAAUU	-1.52 ± 0.1	-0.549 ± 0.12
GACGAGCAAUAUUACGUUAU	-4.17 ± 0.39	-2.36 ± 0.31
UACUAGCAAUAUUACGCAAC	-2.26 ± 0.26	-1.85 ± 0.34
GCCCAGCAAUAUUACGAAAG	-2.48 ± 0.12	-2.07 ± 0.19
AUGUAGCAAUAUUACGUGCG	-1.8 ± 0.09	-0.122 ± 0.097
AAUGAGCAAUAUUACGUAAA	-3.26 ± 0.18	-1.1 ± 0.18
GCGAAGCAAUAUUACGCUGU	-1.5 ± 0.39	–
GUUUAGCAAUAUUACGGUUG	-3.13 ± 0.36	-1.47 ± 0.28
GACCAGCAAUAUUACGACGG	-2.67 ± 0.15	-1.99 ± 0.18
AACGAGCAAUAUUACGUCGU	-2.5 ± 0.23	-2.9 ± 0.31
UAUGAGCAAUAUUACGUACU	-4.19 ± 0.42	-1.09 ± 0.41
CCGCAGCAAUAUUACGACUU	-3.51 ± 0.35	-1.68 ± 0.32

Sequence	self-splicing fitness (ln) (30 °C)	self-splicing fitness (ln) (37 °C)
AUCAAGCAAUAUUACGCCUG	-1.61 ± 0.12	-0.797 ± 0.16
GCGGAGCAAUAUUACGGAAA	–	-1.54 ± 0.46
CGAAAGCAAUAUUACGAAGU	-3.07 ± 0.15	-1.84 ± 0.19
CUACAGCAAUAUUACGAGAA	-2.84 ± 0.46	-1.92 ± 0.28
GUGUAGCAAUAUUACGGGAU	-2.93 ± 0.17	-2.18 ± 0.2
UCCCAGCAAUAUUACGAUUA	-1.71 ± 0.12	-1.36 ± 0.14
GUUUAGCAAUAUUACGUAUA	-2.12 ± 0.16	-1.41 ± 0.22
CUUGAGCAAUAUUACGAGGA	-3.08 ± 0.38	–
ACGUAGCAAUAUUACGGUGA	-2.3 ± 0.2	-0.727 ± 0.15
ACCCAGCAAUAUUACGUAUA	-2.2 ± 0.092	-1.2 ± 0.085
CACUAGCAAUAUUACGAUCU	-3.56 ± 0.19	-2.18 ± 0.18
GUCCAGCAAUAUUACGUGUC	-0.424 ± 0.057	0.0485 ± 0.068
CAAGAGCAAUAUUACGAAGC	-3.5 ± 0.23	-2.86 ± 0.24
AUGUAGCAAUAUUACGCACA	-0.084 ± 0.13	0.428 ± 0.17
AGGAAGCAAUAUUACGUCCG	-0.623 ± 0.16	0.408 ± 0.2
GAAGAGCAAUAUUACGAAGU	-3.98 ± 0.42	-2.85 ± 0.3
CCGAAGCAAUAUUACGCACU	-2.98 ± 0.26	-2.68 ± 0.44
UUAGAGCAAUAUUACGUAAG	-2.23 ± 0.097	-1.2 ± 0.1
AUGAAGCAAUAUUACGGUGU	-1.33 ± 0.062	-0.601 ± 0.078
GUCCAGCAAUAUUACGUACU	-2.47 ± 0.14	-1.53 ± 0.14
AUGCAGCAAUAUUACGCCAC	-2.31 ± 0.47	-2.1 ± 0.36
UACUAGCAAUAUUACGUCAG	-1.72 ± 0.2	-1.43 ± 0.21
GACCAGCAAUAUUACGACAC	-0.384 ± 0.065	-0.0663 ± 0.085
GGCGAGCAAUAUUACGCUUG	–	-2.71 ± 0.48
